# Earlier results as cited in PMC3208733.
# Several values for one entry are separate records, joined by “and”; a condition that tells them apart may be missing. Equal entries are not always repeated.
# Target: scaffolding protein (Salmonella phage P22) (UniProt P26748)
substance,measurement,value
scaffolding protein (from UniProt P26748),Kd,78 µM and 170 µM
